{"source": "paper PMC5982148", "origin": "cited, not measured here", "assay_in_all_cases": "SPR", "key": {"CYP1B1 (Homo sapiens)": {"target": "CYP1B1 (Homo sapiens) (UniProt Q16678)", "sequence (Q16678 whole entry)": "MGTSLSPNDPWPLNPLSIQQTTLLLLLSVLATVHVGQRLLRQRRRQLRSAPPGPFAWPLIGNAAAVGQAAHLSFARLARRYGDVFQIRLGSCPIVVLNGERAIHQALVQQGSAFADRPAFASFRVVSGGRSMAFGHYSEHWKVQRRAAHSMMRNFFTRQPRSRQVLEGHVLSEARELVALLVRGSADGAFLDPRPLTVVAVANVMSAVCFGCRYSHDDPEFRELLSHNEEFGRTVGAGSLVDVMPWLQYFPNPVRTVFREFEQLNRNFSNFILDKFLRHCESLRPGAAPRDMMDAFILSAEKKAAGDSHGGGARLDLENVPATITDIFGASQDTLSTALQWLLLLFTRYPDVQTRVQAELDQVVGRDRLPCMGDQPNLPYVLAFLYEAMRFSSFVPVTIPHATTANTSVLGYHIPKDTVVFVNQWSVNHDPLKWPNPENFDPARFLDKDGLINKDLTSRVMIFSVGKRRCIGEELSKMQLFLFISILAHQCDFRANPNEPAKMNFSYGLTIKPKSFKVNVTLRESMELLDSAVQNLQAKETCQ"}, "CYP2C9 (Homo sapiens)": {"target": "CYP2C9 (Homo sapiens) (UniProt P11712)", "sequence (P11712 whole entry)": "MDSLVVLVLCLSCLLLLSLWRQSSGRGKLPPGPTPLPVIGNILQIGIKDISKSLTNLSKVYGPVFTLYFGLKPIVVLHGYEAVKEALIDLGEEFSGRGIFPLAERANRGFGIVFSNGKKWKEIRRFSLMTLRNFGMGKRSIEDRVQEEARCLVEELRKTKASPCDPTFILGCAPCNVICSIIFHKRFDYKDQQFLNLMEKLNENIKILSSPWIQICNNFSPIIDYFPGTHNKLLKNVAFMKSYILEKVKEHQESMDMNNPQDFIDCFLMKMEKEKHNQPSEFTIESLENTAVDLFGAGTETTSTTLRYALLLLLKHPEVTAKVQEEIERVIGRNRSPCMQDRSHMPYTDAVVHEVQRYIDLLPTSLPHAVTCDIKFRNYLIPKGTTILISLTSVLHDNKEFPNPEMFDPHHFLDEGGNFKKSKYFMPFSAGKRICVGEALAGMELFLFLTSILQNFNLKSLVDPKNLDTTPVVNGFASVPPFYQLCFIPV"}, "[1]": {"target": "glyceraldehyde-3-phosphate dehydrogenase (Homo sapiens) (UniProt P04406)", "sequence (P04406 2-335)": "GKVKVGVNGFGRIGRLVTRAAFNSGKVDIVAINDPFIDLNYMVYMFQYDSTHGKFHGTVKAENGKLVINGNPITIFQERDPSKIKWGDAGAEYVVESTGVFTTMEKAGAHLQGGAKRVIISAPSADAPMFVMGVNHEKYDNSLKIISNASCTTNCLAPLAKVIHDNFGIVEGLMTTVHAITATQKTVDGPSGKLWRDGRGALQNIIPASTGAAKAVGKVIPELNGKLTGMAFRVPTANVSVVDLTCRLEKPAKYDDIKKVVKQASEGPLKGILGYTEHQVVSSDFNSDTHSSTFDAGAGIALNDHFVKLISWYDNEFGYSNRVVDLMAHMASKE"}, "[2]": {"target": "cytochrome b5 (Homo sapiens) (UniProt P00167)"}, "SMAD4 (Homo sapiens)": {"target": "SMAD4 (Homo sapiens) (UniProt Q13485)", "sequence (Q13485 whole entry)": "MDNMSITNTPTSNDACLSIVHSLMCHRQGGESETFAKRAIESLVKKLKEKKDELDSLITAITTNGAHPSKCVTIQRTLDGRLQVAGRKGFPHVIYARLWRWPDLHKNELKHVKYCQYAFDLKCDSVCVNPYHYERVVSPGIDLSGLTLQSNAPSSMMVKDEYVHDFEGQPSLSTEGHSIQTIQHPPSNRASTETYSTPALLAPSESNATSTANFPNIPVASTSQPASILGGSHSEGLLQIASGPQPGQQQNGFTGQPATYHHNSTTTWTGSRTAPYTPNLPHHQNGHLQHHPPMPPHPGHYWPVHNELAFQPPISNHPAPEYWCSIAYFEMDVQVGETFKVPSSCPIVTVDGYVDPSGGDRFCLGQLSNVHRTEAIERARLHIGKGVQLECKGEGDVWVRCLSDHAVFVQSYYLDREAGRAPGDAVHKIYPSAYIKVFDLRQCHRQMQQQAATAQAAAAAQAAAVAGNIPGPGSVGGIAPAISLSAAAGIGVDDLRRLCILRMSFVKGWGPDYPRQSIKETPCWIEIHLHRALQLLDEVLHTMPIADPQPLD"}, "[3]": {"target": "NADPH-adrenodoxin reductase (Homo sapiens) (UniProt P22570)", "sequence (P22570 33-491)": "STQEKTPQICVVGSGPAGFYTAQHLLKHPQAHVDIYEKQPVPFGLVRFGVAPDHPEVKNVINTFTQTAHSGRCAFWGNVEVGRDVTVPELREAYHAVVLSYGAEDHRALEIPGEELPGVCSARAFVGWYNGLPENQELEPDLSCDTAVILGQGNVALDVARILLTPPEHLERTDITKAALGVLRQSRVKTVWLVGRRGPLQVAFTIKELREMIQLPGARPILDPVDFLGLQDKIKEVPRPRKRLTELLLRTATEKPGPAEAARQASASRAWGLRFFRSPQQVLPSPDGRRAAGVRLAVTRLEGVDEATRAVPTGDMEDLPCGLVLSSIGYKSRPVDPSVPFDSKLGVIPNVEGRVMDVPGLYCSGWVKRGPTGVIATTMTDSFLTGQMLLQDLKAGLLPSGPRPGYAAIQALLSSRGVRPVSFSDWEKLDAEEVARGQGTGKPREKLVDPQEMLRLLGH"}}, "data": [{"substance": "cytochrome b5 (from UniProt P00167)", "values": [{"measurement": "Kd", "setting": "CYP1B1 (Homo sapiens)", "value": 70, "unit": "nM"}, {"measurement": "Kd", "setting": "CYP2C9 (Homo sapiens)", "value": 1100, "unit": "nM"}, {"measurement": "Kd", "setting": "[1]", "value": 100, "unit": "nM"}]}, {"substance": "ferrochelatase (from UniProt P22830)", "values": [{"measurement": "Kd", "setting": "[2]", "value": 1500, "unit": "nM"}, {"measurement": "Kd", "setting": "SMAD4 (Homo sapiens)", "value": 1600, "unit": "nM"}, {"measurement": "Kd", "setting": "[3]", "value": 13, "unit": "µM"}]}]}
